Measurements reported in the array DNA melting data of Ke et al..

Assay: melting temperature; melt of duplexes
Conditions: sodium 0.0675 M; strand 1 µM

| Substance | Tm [°C] |
| --- | --- |
| CGACGTGCAGCATGTGCTG+CAGCACATCCTGCACGTCG ((((((((((.((((((((+)))))))).)))))))))) | 53.9 |
| CGACGTGCAGCATGTGCTG+CAGCACATCGTGCACGTCG (((((((((..((((((((+))))))))..))))))))) | 44.1 |
| CGACGTGCAGCATGTGCTG+CAGCACATCTGGCACGTCG ((((((((...((((((((+))))))))...)))))))) | 49.5 |
| CGACGTGCAGCATGTGCTG+CAGCACATGACGCACGTCG ((((((((..(((((((((+)))))))))..)))))))) | 52 |
| CGACGTGCAGCATGTGCTG+CAGCACATGATGCACGTCG (((((((((.(((((((((+))))))))).))))))))) | 61.3 |
| CGACGTGCAGCATGTGCTG+CAGCACATGCGGCACGTCG ((((((((.((((((((((+)))))))))).)))))))) | 61.6 |
| CGACGTGCAGCATGTGCTG+CAGCACATGCTGCACGTCG (((((((((((((((((((+))))))))))))))))))) | 66.1 |
| CGACGTGCAGCATGTGCTG+CAGCACATGTAGCACGTCG ((((((((..(((((((((+)))))))))..)))))))) | 54.4 |
| CGACGTGCAGCATGTGCTG+CAGCACATGTGGCACGTCG ((((((((..(((((((((+)))))))))..)))))))) | 55.5 |
| CGACGTGCAGCATGTGCTG+CAGCACATGTTGCACGTCG (((((((((.(((((((((+))))))))).))))))))) | 58.7 |
| CGACGTGCAGCATGTGCTG+CAGCACATTACGCACGTCG ((((((((...((((((((+))))))))...)))))))) | 45.1 |
| CGACGTGCAGCATGTGCTG+CAGCACATTCAGCACGTCG ((((((((.(.((((((((+)))))))).).)))))))) | 47.8 |
| CGACGTGCAGCATGTGCTG+CAGCACATTCTGCACGTCG ((((((((((.((((((((+)))))))).)))))))))) | 55 |
| CGACGTGCAGCATGTGCTG+CAGCACATTGCGCACGTCG ((((((((...((((((((+))))))))...)))))))) | 52.5 |
| CGACGTGCAGCATGTGCTG+CAGCACATTGGGCACGTCG ((((((((...((((((((+))))))))...)))))))) | 47.2 |
| CGACGTGCAGCATGTGCTG+CAGCACATTGTGCACGTCG (((((((((..((((((((+))))))))..))))))))) | 44.8 |
| CGACGTGCAGGATGTGCTG+CAGCACATAAAGCACGTCG ((((((((...((((((((+))))))))...)))))))) | 50.6 |
| CGACGTGCAGGATGTGCTG+CAGCACATAAGGCACGTCG ((((((((...((((((((+))))))))...)))))))) | 50.8 |
| CGACGTGCAGGATGTGCTG+CAGCACATACCGCACGTCG ((((((((.(.((((((((+)))))))).).)))))))) | 53.7 |
| CGACGTGCAGGATGTGCTG+CAGCACATAGGGCACGTCG ((((((((...((((((((+))))))))...)))))))) | 50.3 |
| CGACGTGCAGGATGTGCTG+CAGCACATATAGCACGTCG ((((((((...((((((((+))))))))...)))))))) | 50.6 |
| CGACGTGCAGGATGTGCTG+CAGCACATATGGCACGTCG ((((((((...((((((((+))))))))...)))))))) | 51.3 |
| CGACGTGCAGGATGTGCTG+CAGCACATCATGCACGTCG (((((((((.(((((((((+))))))))).))))))))) | 60.2 |
| CGACGTGCAGGATGTGCTG+CAGCACATCCCGCACGTCG ((((((((.((((((((((+)))))))))).)))))))) | 59 |
| CGACGTGCAGGATGTGCTG+CAGCACATCCTGCACGTCG (((((((((((((((((((+))))))))))))))))))) | 66 |
| CGACGTGCAGGATGTGCTG+CAGCACATCGTGCACGTCG (((((((((.(((((((((+))))))))).))))))))) | 58.3 |

| Substance | Tm [°C] |
| --- | --- |
| CGACGTGCAGGATGTGCTG+CAGCACATCTAGCACGTCG ((((((((..(((((((((+)))))))))..)))))))) | 56 |
| CGACGTGCAGGATGTGCTG+CAGCACATGTAGCACGTCG ((((((((...((((((((+))))))))...)))))))) | 50.4 |
| CGACGTGCAGGATGTGCTG+CAGCACATGTCGCACGTCG ((((((((...((((((((+))))))))...)))))))) | 51.4 |
| CGACGTGCAGGATGTGCTG+CAGCACATTAAGCACGTCG ((((((((...((((((((+))))))))...)))))))) | 50.7 |
| CGACGTGCAGGATGTGCTG+CAGCACATTCAGCACGTCG ((((((((.(.((((((((+)))))))).).)))))))) | 54.1 |
| CGACGTGCAGGATGTGCTG+CAGCACATTCCGCACGTCG ((((((((.(.((((((((+)))))))).).)))))))) | 54.6 |
| CGACGTGCAGGATGTGCTG+CAGCACATTGAGCACGTCG ((((((((...((((((((+))))))))...)))))))) | 50.6 |
| CGACGTGCAGGATGTGCTG+CAGCACATTTCGCACGTCG ((((((((...((((((((+))))))))...)))))))) | 51.1 |
| CGACGTGCAGTATGTGCTG+CAGCACATAAAGCACGTCG ((((((((..(((((((((+)))))))))..)))))))) | 51.7 |
| CGACGTGCAGTATGTGCTG+CAGCACATAAGGCACGTCG ((((((((..(((((((((+)))))))))..)))))))) | 52.1 |
| CGACGTGCAGTATGTGCTG+CAGCACATACCGCACGTCG ((((((((.((((((((((+)))))))))).)))))))) | 55.7 |
| CGACGTGCAGTATGTGCTG+CAGCACATACTGCACGTCG (((((((((((((((((((+))))))))))))))))))) | 62.7 |
| CGACGTGCAGTATGTGCTG+CAGCACATAGTGCACGTCG (((((((((.(((((((((+))))))))).))))))))) | 55.1 |
| CGACGTGCAGTATGTGCTG+CAGCACATATGGCACGTCG ((((((((..(((((((((+)))))))))..)))))))) | 52.7 |
| CGACGTGCAGTATGTGCTG+CAGCACATCAAGCACGTCG ((((((((...((((((((+))))))))...)))))))) | 49.6 |
| CGACGTGCAGTATGTGCTG+CAGCACATCATGCACGTCG (((((((((..((((((((+))))))))..))))))))) | 51.4 |
| CGACGTGCAGTATGTGCTG+CAGCACATCTAGCACGTCG ((((((((...((((((((+))))))))...)))))))) | 50.8 |
| CGACGTGCAGTATGTGCTG+CAGCACATCTGGCACGTCG ((((((((...((((((((+))))))))...)))))))) | 51.4 |
| CGACGTGCAGTATGTGCTG+CAGCACATGAAGCACGTCG ((((((((...((((((((+))))))))...)))))))) | 50.5 |
| CGACGTGCAGTATGTGCTG+CAGCACATGATGCACGTCG (((((((((..((((((((+))))))))..))))))))) | 55 |
| CGACGTGCAGTATGTGCTG+CAGCACATGCCGCACGTCG ((((((((.(.((((((((+)))))))).).)))))))) | 52.8 |
| CGACGTGCAGTATGTGCTG+CAGCACATGGCGCACGTCG ((((((((...((((((((+))))))))...)))))))) | 50.2 |
| CGACGTGCAGTATGTGCTG+CAGCACATGGTGCACGTCG (((((((((..((((((((+))))))))..))))))))) | 53.9 |
| CGACGTGCAGTATGTGCTG+CAGCACATGTGGCACGTCG ((((((((...((((((((+))))))))...)))))))) | 50.4 |
| CGACGTGCAGTATGTGCTG+CAGCACATTACGCACGTCG ((((((((...((((((((+))))))))...)))))))) | 52.1 |
| CGACGTGCAGTATGTGCTG+CAGCACATTATGCACGTCG (((((((((..((((((((+))))))))..))))))))) | 52.4 |
